Results from article PMC5628483, “Soluble polymorphic bank vole prion proteins induced by co-expression of quiescin sulfhydryl oxidase in E. coli and their aggregation behaviors” (Microbial Cell Factories, 2017).

What was measured:
[1] = biological target: full-length recombinant bank vole prion protein with isoleucine at residue 109 (rBVPrP-109I) (bank vole (Myodes glareolus), UniProt Q8VHV5 23-231, 109I); test: SPR; conditions: both partners purified
[2] = biological target: full-length recombinant bank vole prion protein with methionine at residue 109 (rBVPrP-109M) (bank vole (Myodes glareolus), UniProt Q8VHV5 23-231); test: SPR; conditions: both partners purified

B1: Quiescin sulfhydryl oxidase (QSOX) (enzyme)
chain: APRSALYSPSDPLTLLQADTVRGAVLGSRSAWAVEFFASWCGHCIAFAPTWKALAEDVKAWRPALYLAALDCAEETNSAVCRDFNIPGFPTVRFFKAFTKNGSGAVFPVAGADVQTLRERLIDALESHHDTWPPACPPLEPAKLEEIDGFFARNNEEYLALIFEKGGSYLGREVALDLSQHKGVAVRRVLNTEANVVRKFGVTDFPSCYLLFRNGSVSRVPVLMESRSFYTAYLQRLSGLTREAAQTTVAPTTANKIAPTVWKLADRSKIYMADLESALHYILRIEVGRFPVLEGQRLVALKKFVAVLAKYFPGRPLVQNFLHSVNEWLKRQKRNKIPYSFFKTALDDRKEGAVLAKKVNWIGCQGSEPHFRGFPCSLWVLFHFLTVQAARQNVDHSQEAAKAKEVLPAIRGYVHYFFGCRDCASHFEQMAAASMHRVGSPNAAVLWLWSSHNRVNARLAGAPSEDPQFPKVQWPPRELCSACHNERLDVPVWDVEATLNFLKAHFSPSNIILDFPAAGSAARRDVQNVAAAPELAMGALELESRNSTLDPGKPEMMKSPTNTTPHVPAEGPELI
B1 gave a Kd [1] of 11 nM and a Kd [2] of 23 nM.
